Substrate in the data set: N[C@@H](CCC(=O)N[C@H](CSc1ccc([N+](=O)[O-])cc1[N+](=O)[O-])C(=O)NCC(=O)O)C(=O)O
The data set is described as follows: TP_TRANSPORTER: uptake in bile canalicular membrane vesicles from ddY mouse. The format is functional, cell membranes, Bile canalicular membrane vesicle.

B1: ATP-binding cassette sub-family C member 2 (Mus musculus) (protein)
chain: MDEFCNSTFWNLSLLKSPEADLPLCFEQTVLVWIPLGFLWLLAPWQLYRIYRSRTKRFAITKFYLAKQVFVVCLLILAAIDLSLALTEDTGQATIPPVKYTNPILYLCTWLLVLVIQHCRQCCIQKNSWFLSMFWILSLLCGIFQFQTLIRALLQDSKSNMTYSCLFFVSYGFQIVILILSAFSESSDSTHAPSATASFLSSVTFSWYDSTVLKGYKHPLTIEDVWDIEENLKAKSLTSKFKTIMTKDLQKARQALQRRLKKSQQSPEGTSHGLTKKQSQSQDVLVLEDSKKKKKKSEATKDFPKSWLVKALFKTFYVVILKSFILKLAHDILLFLNPQLLKFLIGFVKDPDSYPWVGYIYAILMFSVTLIQSFFLQCYFQFCFVLGMTVRTTIIASVYKKALTLSNLARRQYTIGETVNLMSVDSQKLMDVTNYIHLLWSSVLQIALSIFFLWRELGPSILAGVGLMVLLVPVNGVLATKIRKIQVQNMKNKDKRLKIMNEILSGIKILKYFAWEPSFKEQVNSIRKKELRNLLRFSQLQTILIFILHLTPTLVSVITFSVYVLVDSQNVLNAEKAFTSITLFNILRFPLAMLPMVISSVIQASVSVDRLEQYLGSDDLDLSAIRHVCHFDKAVQFSEASFTWDRDLEATIQDVNLDIKPGQLVAVVGTVGSGKSSLISAMLGEMENVHGHITIKGSIAYVPQQAWIQNGTIKDNILFGSEYDEKKYQRVIEACALLPDLEMLPGGDMAEIGEKGINLSGGQKHRVSLARATYQDADIYILDDPLSAVDTHVGKHIFNKVVGPNGLLSGKTRILVTHGIHFLPQVDEIVVLGKGTILEKGSYSDLMDKKGVFAKNWKTFMKHSGPEGEATVDNDSEEEDGDCGLIPTVEEIPDDAASLTMRRENSLRRTLSRSSRSGSRRGKSLKSSLKIKSVNALNKKEEVVKGQKLIKKEFVETGKVKFSIYLKYLQAVGWWSLLFIVIFYVLNYVAFIGTNLWLSAWTSDSEKQNGTDNSPSQRDMRIGVFGALGIAQGIFLLSSSLWSIYACRNASKTLHRQLLTNILRAPMSFFDTTPTGRIVNRFAGDISTVDDTLPQTLRSWLLCFFGIVSTLVMICMATPIFIIIIIPLSILYVSVQVFYVATSRQLRRLDSVTKSPIYSHFSETVSGLPVIRAFEHQQRFLANSEKQIDTNQKCVFSWITSNRWLAIRLELVGNLIVFCSALLLVIYKNSLTGDTVGFVLSNALNITQTLNWLVRMTSEVETNIVAVERINEYINVDNEAPWVTDKKPPADWPKKGEIQFNNYQVRYRPELDLVLKGITCNIKSTEKVGVVGRTGAGKSSLTNCLFRILESAGGQIIIDGIDIASIGLHDLRGRLTIIPQDPILFSGNLRMNLDPFNKYSDEEIWRALELAHLKSFVAGLQLGLLHEVTEGGDNLSIGQRQLLCLGRAVLRKSKILVLDEATAAVDLETDSLIQTTIRNEFSQCTVITIAHRLHTIMDSDKIMVLDSGKIVEYGSPEELLSNMGPFYLMAKEAGIESVNHTEL
A word on the Km: it is the concentration of substrate that gives half-maximal velocity. Consider B1, for which the Km was 25.5 µM.

(Values after ChEMBL document CHEMBL2074291, “Species differences in the transport activity for organic anions across the bile canalicular membrane” (J Pharmacol Exp Ther, 1999).)
